Test results as given in US20170355774A1 (Regeneron, published 2017).

T1: human GITR (amino acids M1-V241, NCBI Accession #NP_004186.1) expressed on cells (human, UniProt Q9Y5U5 26-241)
T1 sequence: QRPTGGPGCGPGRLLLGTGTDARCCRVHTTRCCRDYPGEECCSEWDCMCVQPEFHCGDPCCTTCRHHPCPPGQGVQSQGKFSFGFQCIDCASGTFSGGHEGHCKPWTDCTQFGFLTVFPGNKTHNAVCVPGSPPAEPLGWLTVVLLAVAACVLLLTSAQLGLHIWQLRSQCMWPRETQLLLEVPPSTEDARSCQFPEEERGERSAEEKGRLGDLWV

T2: hGITR.mFc (human)
T2 construct: soluble dimeric construct with mouse Fc; also called dimeric human GITR
T2 chain: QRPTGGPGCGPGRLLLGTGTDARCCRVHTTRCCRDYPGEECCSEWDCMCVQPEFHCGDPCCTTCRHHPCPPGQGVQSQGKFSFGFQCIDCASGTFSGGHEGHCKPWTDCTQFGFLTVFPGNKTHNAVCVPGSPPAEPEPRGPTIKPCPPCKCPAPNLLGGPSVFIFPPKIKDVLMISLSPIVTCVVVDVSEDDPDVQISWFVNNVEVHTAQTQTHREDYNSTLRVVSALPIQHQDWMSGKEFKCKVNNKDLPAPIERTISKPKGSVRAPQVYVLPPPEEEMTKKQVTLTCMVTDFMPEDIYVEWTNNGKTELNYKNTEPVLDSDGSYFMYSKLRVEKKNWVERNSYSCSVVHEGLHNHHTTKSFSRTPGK

T3: mfGITR.mmh (Macaca fasicularis)
T3 construct: soluble monomeric construct; also called Macaca fasicularis (mf) GITR.mmh; cynomolgus GITR protein
T3 chain: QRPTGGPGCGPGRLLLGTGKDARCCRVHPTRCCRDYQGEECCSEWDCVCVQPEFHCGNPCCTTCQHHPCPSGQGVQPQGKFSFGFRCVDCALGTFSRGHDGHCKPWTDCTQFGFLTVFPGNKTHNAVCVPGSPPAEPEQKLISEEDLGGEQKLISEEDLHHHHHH

T4: hGITR.mmh (human)
T4 construct: soluble monomeric construct; also called human (h) GITR.mmh; monomeric human GITR
T4 chain: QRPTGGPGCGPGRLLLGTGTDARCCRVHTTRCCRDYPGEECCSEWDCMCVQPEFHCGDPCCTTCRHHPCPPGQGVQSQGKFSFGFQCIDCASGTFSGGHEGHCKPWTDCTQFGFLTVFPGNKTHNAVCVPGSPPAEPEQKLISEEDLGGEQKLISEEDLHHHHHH


Experiments:
[1] = target: T1, human GITR (amino acids M1-V241, NCBI …); experiment: cell-based or functional assay
[2] = target: T1, human GITR (amino acids M1-V241, NCBI …); experiment: cell-based or functional assay; remark: listed apart in the source
[3] = target: T1, human GITR (amino acids M1-V241, NCBI …); experiment: ECL cell binding, hGITR/HEK293-D9
Method in brief: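 Cells blocked with 2% BSA, then antibody dilutions from 1.7 pM to 100 nM added 1 h at RT. Bound antibody detected with SULFO-TAG anti-human kappa antibody, electrochemiluminescence read, RLU fitted by four-parameter logistic; signal at 100 nM on hGITR cells versus parental cells also recorded.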

hGITR.mFc = target: T2, hGITR.mFc; experiment: SPR 37C, mAb capture
mfGITR.mmh = target: T3, mfGITR.mmh; experiment: SPR 37C, mAb capture
hGITR.mmh = target: T4, hGITR.mmh; experiment: SPR 37C, mAb capture
[4] = target: T1, human GITR (amino acids M1-V241, NCBI …); experiment: cell-based or functional assay; remark: listed apart in the source
[5] = target: T1, human GITR (amino acids M1-V241, NCBI …); experiment: cell-based or functional assay; remark: listed apart in the source
[6] = target: T1, human GITR (amino acids M1-V241, NCBI …); experiment: cell-based or functional assay; remark: listed apart in the source

Row | Binder | % Activation, NF-kB-Luc, non-anchored [2] [%] | % Blocking, NF-kB-Luc, non-anchored [2] [%] | EC50, hGITR activation, NF-kB-Luc, non-anchored [2] [nM] | IC50, blocking of hGITRL stimulation, NF-kB-Luc, non-anchored [2] [nM] | Average Signal (RLU) at 100 nM [3] [RLU] | EC50 [3] [nM] | Kd (hGITR.mFc) [nM] | koff (hGITR.mFc) [s⁻¹] | kon (hGITR.mFc) [M⁻¹ s⁻¹] | t½ (hGITR.mFc) [min] | Kd (mfGITR.mmh) [nM] | koff (mfGITR.mmh) [s⁻¹] | kon (mfGITR.mmh) [M⁻¹ s⁻¹] | t½ (mfGITR.mmh) [min] | Kd (hGITR.mmh) [nM] | koff (hGITR.mmh) [s⁻¹] | kon (hGITR.mmh) [M⁻¹ s⁻¹] | t½ (hGITR.mmh) [min] | fold activation, T-cell proliferation, 33 nM, FcgR anchored, donor 1 [4] [fold] | fold activation, T-cell proliferation, 33 nM, FcgR anchored, donor 2 [4] [fold] | other results
1 | H1H14512P (antibody, human IgG1, V domains shown, human IgG1 (H1H)) VH: QVQLVESGGGVVQPGRSLRLSCAVSGFTLSSYGMDWVRQAPGKGLEWVAVIWYDGSNKYYSDSVKGRFTISRDNSKNTLFLQMNSLRADDTAVYYCARDGELGLDYYSGMDVWGQGTTVTVSS VL: DIQMTQSPSSLSASVGDRVTITCRASQDIRNDLGWYQQKPGKAPKRLIYGASSLQSGVPSRFSGSGSGTEFTLTISSLQPEDFATYYCLQLNSYPRTFGQGTKVEIK | 20 | 100 | 1.2 | 0.7 | 4620 | 0.25 | – | – | – | – | – | – | – | – | – | – | – | – | – | – | EC50, hGITR activation, NF-kB-Luc, FcgR anchored [1]: 0.02 nM; Fold Activation over basal signal, NF-kB-Luc, FcgR anchored [1]: 7 fold; IC50, blocking of hGITRL stimulation, NF-kB-Luc, FcgR anchored [1]: 0.1 nM
2 | H4H14539P2 (antibody, human IgG4, V domains shown, human IgG4 (H4H)) VH: QVQLVESGGGVVQPGRSLRLSCAASGFSFSSYGMHWVRQAPGKGLEWMAVIWYAGSNKFYADSVKGRFTISRDNSKNTLYLQMNSLTAEDTAVYYCARGSSLAAPDLYKYGMDVWGQGTTVTVSS VL: not shown | 20 | 30 | 1.3 | 1.2 | 4910 | 0.3 | 0.554 | 0.000472 | 853000 | 24.5 | 22.8 | 0.00165 | 72300 | 7 | 82.5 | 0.0177 | 214000 | 0.7 | 0.9 | 0.7 | fold activation, T-cell proliferation, 33 nM, FcgR anchored, donor 3 [4]: 1.1 fold; fold activation, T-cell proliferation, 33 nM, FcgR anchored, donor 4 [4]: 1.5 fold; fold activation, T-cell proliferation, 33 nM, FcgR anchored, donor 5 [4]: 1.5 fold; fold activation, T-cell proliferation, 33 nM, FcgR anchored, mean [4]: 1.1 fold; fold activation, T-cell proliferation, plate-bound Ab 10.6 nM, donor 1 [5]: 2 fold; fold activation, T-cell proliferation, plate-bound Ab 10.6 nM, donor 2 [5]: 12 fold; fold activation, T-cell proliferation, plate-bound Ab 10.6 nM, donor 3 [5]: 12 fold; fold activation, T-cell proliferation, plate-bound Ab 10.6 nM, donor 4 [5]: 13 fold; fold activation, T-cell proliferation, plate-bound Ab 10.6 nM, donor 5 [5]: 12 fold; fold activation, T-cell proliferation, plate-bound Ab 10.6 nM, donor 6 [5]: 39 fold; fold activation, T-cell proliferation, plate-bound Ab 10.6 nM, donor 7 [5]: 11 fold; fold activation, T-cell proliferation, plate-bound Ab 10.6 nM, donor 8 [5]: 6 fold; fold activation, T-cell proliferation, plate-bound Ab 10.6 nM, mean [5]: 13 fold; fold activation, T-cell proliferation, 22 nM, non-anchored, donor 1 [6]: 0.5 fold; fold activation, T-cell proliferation, 22 nM, non-anchored, donor 2 [6]: 0.8 fold; fold activation, T-cell proliferation, 22 nM, non-anchored, donor 3 [6]: 1.1 fold; fold activation, T-cell proliferation, 22 nM, non-anchored, donor 4 [6]: 0.8 fold; fold activation, T-cell proliferation, 22 nM, non-anchored, mean [6]: 0.8 fold
3 | H4H14516P (antibody, human IgG4, V domains shown, human IgG4 (H4H)) VH: EVQLVESGGGLVQPGGSLRLSCAASGFTFSNYEMYWVRQAPGKGLEWVSYISSSGTTIYYADSVKGRFSVSRENARSSLYLQMNSLRVEDSAVYFCAKYNWNSFYGLDVWGQGTTVTVSS VL: AIQMTQSPSSLSASVGDRVTITCRASQDIRNDLGWYQQKPGKAPKLLISAASSLQGGVPSRFSGSGSGTDFTLTISSLQPADFATYYCLQEYNYALTFGGGTKVEIK | 45 | 70 | 0.8 | 2.3 | 10300 | 0.7 | 1.08 | 0.00181 | 1.68e+06 | 6.4 | 58.7 | 0.0112 | 190000 | 1 | 32.7 | 0.00738 | 225000 | 1.6 | 1.2 | 0.9 | fold activation, T-cell proliferation, 33 nM, FcgR anchored, donor 3 [4]: 1.2 fold; fold activation, T-cell proliferation, 33 nM, FcgR anchored, donor 4 [4]: 1.3 fold; fold activation, T-cell proliferation, 33 nM, FcgR anchored, donor 5 [4]: 1.1 fold; fold activation, T-cell proliferation, 33 nM, FcgR anchored, mean [4]: 1.1 fold; fold activation, T-cell proliferation, plate-bound Ab 10.6 nM, donor 1 [5]: 1 fold; fold activation, T-cell proliferation, plate-bound Ab 10.6 nM, donor 2 [5]: 4 fold; fold activation, T-cell proliferation, plate-bound Ab 10.6 nM, donor 3 [5]: 4 fold; fold activation, T-cell proliferation, plate-bound Ab 10.6 nM, donor 4 [5]: 12 fold; fold activation, T-cell proliferation, plate-bound Ab 10.6 nM, donor 5 [5]: 4 fold; fold activation, T-cell proliferation, plate-bound Ab 10.6 nM, donor 6 [5]: 14 fold; fold activation, T-cell proliferation, plate-bound Ab 10.6 nM, donor 7 [5]: 4 fold; fold activation, T-cell proliferation, plate-bound Ab 10.6 nM, donor 8 [5]: 1 fold; fold activation, T-cell proliferation, plate-bound Ab 10.6 nM, mean [5]: 5 fold; fold activation, T-cell proliferation, 22 nM, non-anchored, donor 1 [6]: 0.7 fold; fold activation, T-cell proliferation, 22 nM, non-anchored, donor 2 [6]: 1.2 fold; fold activation, T-cell proliferation, 22 nM, non-anchored, donor 3 [6]: 1 fold; fold activation, T-cell proliferation, 22 nM, non-anchored, donor 4 [6]: 0.9 fold; fold activation, T-cell proliferation, 22 nM, non-anchored, mean [6]: 0.9 fold
